Reference: US7148071B2, “Quantitative, high-throughput screening method for protein stability” (Duke University, priority 2000, dated 2006)
Marks after values point to notes of the source that are not given here. Ends that are not written are not given here.

Columns and labels:
P22 Arc repressor = P22 Arc repressor (Salmonella phage P22, UniProt P03050); assay: SUPREX analysis of P22 Arc repressor in the absence and presence of cognate DNA; format: binding; details: Arc dimer 12 μM, absence of DNA, 20 mM phosphate pH=7.4
Source text: . At this concentration the stability of the Arc dimer is less than that detectable by SUPREX. Even with exchange times of several minutes, there is no transition detected in the SUPREX curve. The transition midpoint is shifted off scale to the left; […].

[1] = cited from earlier work
[2] = SUPREX analysis of P22 Arc repressor, a homo-dimeric protein; format: physicochemical; details: ΔGSUPREX adjusted to standard conditions (1 M dimer)
Trp repressor protein = Trp repressor protein (Escherichia coli, UniProt P0A881)
Protocol: The concentration of Trp repressor in these experiments was 20 μM; and in (B) the concentration of L-tryptophan in each SUPREX buffer was 200 μM.

E. coli = format: cell-based
Protocol: . […] In FIG. 10B, E. coli placed in various concentrations of urea for 30 minutes were studied at 23° C. (closed circles) and 15° C. (open circles).
(closed circles) and 15° C. (open circles). 1 ml cultures of BL21-(DE3) E. coli were pelleted and resuspended in LB media containing various urea concentrations and incubated for 30 minutes at 15° C. and 23° C. The cells were then pelleted and resuspended in 1 ml of LB media, diluted 1000, plated on LB-agar plates, incubated at 37° C. overnight and the number of colonies were counted.

[3] = conventional CD denaturation curves of purified proteins; format: physicochemical; details: purified protein, pH 8 buffer, FIG. 10A
Protocol: FIGS. 10A–10C depict a conventional denaturation curve by CD with purified protein in 0.15 M NaCl, 20 mM Na2HPO4, 20 mM CH3COONa, pH 8.

[4] = SUPREX (H/D exchange detected by MALDI MS) stability of unpurified proteins in crude E. coli lysates; format: physicochemical
[5] = SUPREX analysis of RNase A, normal protocol; format: physicochemical
Protocol: Two different experimental protocols were employed for the SUPREX analysis of RNase A including one for normal analyses and one for high sensitivity analyses. H/D exchange reactions were initiated by combining 1 μL aliquots of a 100 μM solution of RNase A (fully protonated) in 20 mM sodium phosphate buffer (pH 7.4) with 9 μL volumes of 10 different deuterated exchange buffers containing 20 mM sodium phosphate (pD=7.4) and concentrations of GdmCl that varied between 0.5 and 4 M. After a specified exchange time (typically 65 minutes), a 1 μL aliquot of each exchange reaction was combined with 19 μL of a MALDI matrix solution. The MALDI matrix solution, which comprised an ice-cold, saturated, aqueous solution of SA containing 63% MeCN and 0.1% TFA (pH=3.0), effectively a quenched the H/D exchange reaction and prepared the sample for MALDI analysis. This matrix solution also included two internal mass standards, bovine ubiquitin (8566.1 Da) and hen egg lysozyme (14,303.7 Da). Subsequently, 1 μL of the quenched exchange reaction was spotted on a stainless steel MALDI plate and the solvent was evaporated under a gentle flow of air. […]
(§1) For both normal and high sensitivity analyses 10 replicate MALDI mass spectra were collected and analyzed to determine an average change in mass relative to the fully protonated sample (ΔMass) at each [GdmCl]. […]

[6] = high sensitivity SUPREX analysis of RNase A (micro-concentration step); format: physicochemical; details: high sensitivity protocol
Protocol: The high sensitivity SUPREX protocol outlined in FIG. 11 is similar to the SUPREX protocol disclosed above, with the exception that protein samples were subjected to a micro-concentration step after H/D exchange and prior to MALDI analysis. This micro-concentration step involved the use of a batch chromatography method utilizing 10 μL C18 SUPROTIPS™ from AmiKa (Columbia, Md.). It was preferred to quench the H/D exchange reaction with TFA (0.25% v/v) prior to binding the deuterated protein samples to the SUPROTIPS™. This facilitated preservation of the deuteration state of the protein. […]
as §1
Values for ΔM0, ΔM∞ and ΔGf were obtained by fitting the ΔMass versus [GdmCl] data to equation 1 using SigmaPlot and a nonlinear least squares analysis. value of 8.47 s^−1 was used, which was calculated based on the data of Bai et al (Bai et al., (1993) Proteins 17: 75–86), using the program SPHERE (Zhang, Ph.D. Thesis, Structural Biology and Molecular Biophysics, University of Pennsylvania); and an m value of 3.1 kcal mol^−1M^−1 was used, which was previously determined in other GdmCl-induced equilibrium unfolding experiments on RNase A (Pace et al., (1990) Biochem. 29: 2564–72). […]

[7] = cited from earlier work; remark: listed apart in the source

P22 Arc repressor: P22 Arc repressor, a homo-dimeric protein (MKGMSKMPQFNLRWPREVLDLVRKVAEENGRSVNSEIYQRVMESFKKEGRIGA; also: homo-dimeric protein; UniProt P03050 1-53, looked up)
maximum ΔGSUPREX value (P22 Arc repressor): < 4.0 kcal/mol
previously reported ΔG value ([1]; conventional CD denaturation studies (Bowie et al., 1989)): 11.0 kcal/mol
standard ΔG value [2]: 11.3 ± 0.2 kcal/mol

N[C@@H](Cc1c[nH]c2ccccc12)C(=O)O [L-tryptophan]
ΔGBinding (Trp repressor protein): -3.8 kcal/mol

NC(N)=O [urea]
viability of E. coli cells (E. coli): does not perturb the viability of the cells

λ6–85: monomeric form of the N-terminal domain of λ repressor, wild type
stability by CD denaturation (linear extrapolation method) [3]: 6.16 ± 0.13 kcal/mol
ΔGf (kcal/mol) CD ([1]; 25° C., purified protein, published values): −4.4 ± 0.2^b kcal/mol
previously reported experimental m value ([1]; measured from CD denaturation curves): 2.1±0.1 kcal mol^−1 M^−1
ΔGf (kcal/mol) SUPREX [4]: -5.0 ± 0.4 kcal/mol

B1: RNase A: bovine pancreatic ribonuclease A (type I-A) (protein, UniProt P61823 27-150, looked up)
Ribonuclease pancreatic: KETAAAKFERQHMDSSTSAASSSNYCNQMMKSRNLTKDRCKPVNTFVHESLADVQAVCSQKNVACKNGQTNCYQSYSTMSITDCRETGSSKYPNCAYKTTQANKHIIVACEGNPYVPVHFDASV
ΔGf from one SUPREX curve ([5]; FIG. 12B, standard error of 0.2): -12.9 kcal/mol
average ΔGf value and standard deviation ([5]; three replicate SUPREX analyses): -12.4 ± 0.4 kcal/mol
average ΔGf value and standard deviation ([6]; 3 replicate SUPREX analyses): -12.0 ± 0.5 kcal/mol
ΔGf from one SUPREX curve ([6]; standard error of 0.2): -12.4 kcal/mol
m value ([7]; GdmCl-induced equilibrium unfolding (Pace et al., 1990)): 3.1 kcal mol^−1M^−1
ΔGf by conventional fluorescence denaturation ([7]; Pace et al.): -9.24 ± 0.64 kcal/mol
